Reference: publication PMC11160731

B1: vapB27 promoter oligo (dsDNA)
DNA 1: CGGTGAGTCGACTTCCGCACCTGAGTGGGAAGCCATTGGTATCGTATTCCCATGA
DNA 2: TCATGGGAATACGATACCAATGGCTTCCCACTCAGGTGCGGAAGTCGACTCACCG
B2: vapB46 promoter oligo (dsDNA)
DNA 1: TCCTCCCAGCTCAGCGCCAACCAACCGAGGAACAACGCGCCGACTTTTTCAG
DNA 2: CTGAAAAAGTCGGCGCGTTGTTCCTCGGTTGGTTGGCGCTGAGCTGGGAGGA

How the values were obtained:
[1] = biological target: VapB27;VapC27 (Mycobacterium tuberculosis …, UniProt O07779;P9WF83 1-78;1-137, |); assay: EMSA
[2] = biological target: VapB46;VapC46 (Mycobacterium tuberculosis …, UniProt P9WF13;O50411 1-102;1-130, |); assay: EMSA
VapB46;VapC46, sequence (P9WF13 whole entry, chain 1 of 2): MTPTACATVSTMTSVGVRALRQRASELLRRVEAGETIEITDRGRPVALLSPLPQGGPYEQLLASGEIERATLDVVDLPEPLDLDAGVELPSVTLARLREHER
VapB46;VapC46, sequence (O50411 whole entry, chain 2 of 2): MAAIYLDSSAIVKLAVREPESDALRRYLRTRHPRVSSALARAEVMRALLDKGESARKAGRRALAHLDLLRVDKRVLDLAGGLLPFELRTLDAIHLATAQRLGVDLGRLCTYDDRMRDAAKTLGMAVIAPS

VapB27;VapC27, sequence (O07779 whole entry, chain 1 of 2): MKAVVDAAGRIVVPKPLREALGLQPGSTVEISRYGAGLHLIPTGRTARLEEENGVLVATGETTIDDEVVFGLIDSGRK
VapB27;VapC27, sequence (P9WF83 whole entry, chain 2 of 2): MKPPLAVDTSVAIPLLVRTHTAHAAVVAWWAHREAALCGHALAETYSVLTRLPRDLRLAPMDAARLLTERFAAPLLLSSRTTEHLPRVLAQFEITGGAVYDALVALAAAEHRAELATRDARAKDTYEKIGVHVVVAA

| Binder | binding result [1] | binding result [2] |
| --- | --- | --- |
| B1 | binds |  |
| B2 |  | binds |
